The experiment addresses soluble HLA-E-VL9, HLA-E*01:03 heavy chain refolded with β2-microglobulin and synthetic VL9 peptide (Homo sapiens, HLA-E*01:03, strain).

Where a chain is given by its changes, count along the chain named.

B1: CA146 (antibody, V domains shown)
VH: QVQLVESGGGVVQPGRSLRLSCAASGFTFSSYGMHWVRQAPGKGLEWVAVISYDGSNKYYADSVKGRFTISRDNSKNTLYLQMNSLRAEDTAVYYCAKDRYSIVGATSNGMDVWGQGTTVTVSS
VL: not shown
Regarding B1, the binding result is “binds”.

B2: CA153 (antibody, V domains shown)
VH: EVQLVESGGGLVKPGGSLRLSCAASGFTFSSYSMNWVRQAPGKGLEWVSSISSSSSYIYYADSVKGRFTISRDNAKNSLYLQMNSLRAEDTAVYYCARLTYYYYMDVWGKGTTVTVSS
VL: not shown
Turning to B2, the binding result is “binds”.

B3: CA158 (antibody, V domains shown)
VH: B2 VH with L99M, T100Y, Y101Q, Y102L, Y103A, Y104A, M105I, V107Y, K110Q, T113L
VL: not shown
As to B3, the binding result was “binds”.

B4: CA151 (antibody, V domains shown)
VH: RCSCRSRAPGLVKPSETLSLTCTVSGGSVSSGSYYWSWIRQPPGKGLEWIGYIYYSGSTNYNPSLKSRVTISVDTSKNQFSLKLSSVTAADTAVYYCASFTRMSPYAFDIWGQGTMVTVSS
VL: not shown
Take B4: the binding result is “binds”.

B5: CA141 (antibody, V domains shown)
VH: EVQLVESGGGLVKPGGSLRLSCAASGFTFSSYSMNWVRQAPGKGLEWVSSISSSSSYIYYADSVKGRFTISRDNAKNSLYLQMNSLRAEDTAVYYCARASENGDDAFDIWGQGTMVTVSS
VL: EIVLTQSPATLSLSPGERATLSCRASQSVSSYLAWYQQKPGQAPRLLIYDASNRATGIPARFSGSGSGTDFTLTISSLEPEDFAVYYCQQRSNWPPYTFGQGTKLEIK
In the case of B5, the binding result is “binds”.

B6: CA143 (antibody, V domains shown)
VH: B5 VH with A99D, E101L, N102P, G103A, D104G, A106Y, I109Y, M115L
VL: DIQLTQSPSFLSASVGDRVTITCRASQGISSYLAWYQQKPGKAPKLLIYAASTLQSGVPSRFSGSGSGTEFTLTISSLQPEDFATYYCQQLNSYPQTTFGGGTKVEIK
Take B6: the binding result is recorded as “binds”.

B7: CA144 (antibody, V domains shown)
VH: B5 VH with A99D, S100R, E101V, N102E, G103M, D104A, D105F, A106H, I109Y, M115L
VL: not shown
In the case of B7, the binding result is listed as “binds”.

B8: CA131 (antibody, V domains shown)
VH: QLQLQESGSGLVKPSQTLSLTCAVSGGSISSGGYSWSWIRQPPGKGLEWIGYIYHSGSTYYNPSLKSRVTISVDRSKNQFSLKLSSVTAADTAVYYCATGGGHKELGGWGQGTLVTVSS
VL: not shown
B8: the binding result is recorded as “binds”.

B9: CA123 (antibody, V domains shown)
VH: EVQLVESGGGLVQPGGSLRLSCAASGFTFSSYWMHWVRQAPGKGLVWVSRINSDGSSTSYADSVKGRFTISRDNAKNTLYLQMNSLRAEDTAVYYCARDQGSTSCYYCYYGMDVWGQGTTVTVSS
VL: not shown
B9 came in with a Kd of 3.8 µM.

B10: CA159 (antibody, V domains shown)
VH: QVQLVQSGAEVKKPGSSVKVSCKASGGTFSSYAISWVRQAPGQGLEWMGGIIPIFGTANYAQKFQGRVTITADESTSTAYMELSSLRSEDTAVYYCARASYYYYYMDVWGKGTTVTVSS
VL: not shown
With B10, the binding result is on record as “binds”.

B11: CA150 (antibody, V domains shown)
VH: QVQLVQSGAEVKKPGSSVKVSCKASGGTFSSYAISWVRQAPGQGLEWMGGIIPIFGTANYAQKFQGRVTITADESTSTAYMELSSLRSEDTAVYYCASFPNCSSTSCYYYYYMDVWGKGTTVTVSS
VL: QSALTQPASVSGSPGQSITISCTGTSSDVGGYNYVSWYQQHPGKAPKLMIYDVSNRPSGVSNRFSGSKSGNTASLTISGLQAEDEADYYCSSYTSSSTRDVVFGGGTKLTVL
Regarding B11, the binding result is listed as “binds”.

B12: CA162 (antibody, V domains shown)
VH: QVQLVESGGGLVKPGGSLRLSCAASGFTFSDYYMSWIRQAPGKGLEWVSYISSSSSYTNYADSVKGRFTISRDNAKNSLYLQMNSLRAEDTAVYYCARGRTMFKNYYDSSGYYGYFDYWGQGTLVTVSS
VL: DIQMTQSPSSVSASVGDRVTITCRASQGISSWLAWYQQKPGKAPKLLIYAASSLQSGVPSRFSGSGSGTDFTLTISSLQPEDFATYYCQQANSPLTFGGGTKVEIK
For B12, the binding result is “binds”.

B13: CA148 (antibody, V domains shown)
VH: QVQLVQSGAEVKKPGASVKVSCKASGYTFTSYGISWVRQAPGQGLEWMGWISAYNGNTNYAQKLQGRVTMTTDTSTSTAYMELRSLRSDDTAVYYCARTPGDEYYYYYYMDVWGKGTTVTVSS
VL: EIVLTQSPATLSLSPGERATLSCRASQSVSSYLAWYQQKPGQAPRLLIYDASNRATGIPARFSGSGSGTDFTLTISSLEPEDFAVYYCQQRSNWPRTFGQGTKLEIK
B13: the binding result is given as “binds”.

B14: CA125 (antibody, V domains shown)
VH: EVQLVESGGGLVKPGGSLRLSCAASGFTFSSYSMNWVRQAPGKGLEWVSSISSSSSYIYYADSVKGRFTISRDNAKNSLYLQMNSLRAEDTAVYYCARVVDTAMGDAFDIWGQGTMVTVSS
VL: not shown
As to B14, the binding result was “binds”.

B15: CA149 (antibody, V domains shown)
VH: B14 VH with V99C, V100A, D101A, T102G, A103F, M104V, G105P
VL: not shown
As for B15, the binding result is “binds”.

B16: CA134 (antibody, V domains shown)
VH: B14 VH with V100F, D101G, T102E, A103Q, M104L, G105V, D106S, A107F, I110Y, M116L
VL: EIVMTQSPPGERATLSCRASQSVSSNLAWYQQKPGQAPRLLIYGASTRATGIPARFSGSGSGTEFTLTISSLQSEDFAVYYCQQYNNWPPWTFGQGTKVEIK
Turning to B16, the binding result was “binds”.

B17: CA120 (antibody, V domains shown)
VH: EVQLVESGGGLVQPGGSLRLSCVASGFTFSTYSMNWVRQAPGKGLEWVSYISSSSSTIYYADSVKGRFTISRDNAKNSLYLQMNSLRAEDTAVYYCARDPGWLSWFDPWGQGTLVTVSS
VL: RSLPAPWSLSPGERATLSCRASQSVSNSYLAWYQQKPGQAPRLLIYGASSRATGIPDRFSGSGSGTDFTLTISRLEPEDFAVYYCQQYGGSPRTFGQGTKVEIK
For the molecule B17, the binding result was “binds”.

B18: CA132 (antibody, V domains shown)
VH: B17 VH
VL: EIVLTQSPPGERATLSCRASQSVSNSYLAWYQQKPGQAPRLLIYGASSRATGIPDRFSGSGSGTDFTLTISRLEPEDFAVYYCQQYGGSPRTFGQGTKVEIK
For B18, the binding result is recorded as “binds”.

B19: CA133 (antibody, V domains shown)
VH: B17 VH with T31S
VL: not shown
In the case of B19, the binding result is listed as “binds”.

B20: CA137 (antibody, V domains shown)
VH: B17 VH
VL: not shown
Take B20: the binding result was “binds”.

B21: CA135 (antibody, V domains shown)
VH: B17 VH
VL: not shown
For B21, the binding result is recorded as “binds”.

B22: CA154 (antibody, V domains shown)
VH: not shown
VL: AIRMTQSPSSFSASTGDRVTITCRASQGISSYLAWYQQKPGKAPKLLIYAASTLQSGVPSRFSGSGSGTDFTLTISCLQSEDFATYYCQQYYSYALTFGGGTKVEIK
Turning to B22, the binding result is reported as “binds”.

B23: CA139 (antibody, V domains shown)
VH: not shown
VL: DIQMTQSPSSLSASVGDRVTITCRASQGISNYLAWFQQKPGKAPKSLIYAASSLQSGVPSKFSGSGSGTDFTLTISSLQPEDFATYYCQQYNSYPLTFGGGTKVEIK
For the molecule B23, the binding result is listed as “binds”.

B24: CA128 (antibody, V domains shown)
VH: QVQLVESGGGLVKPGGSLRLSCAASGFTFSDYYMSWIRQAPGKGLEWVSYISSSGSTIYYADSVKGRFTISRDNAKNSLYLQMNSLRAEDTAVYYCARDSGSFVGVFDYWGQGTLVTVSS
VL: not shown
For B24, the binding result was “binds”.

B25: CA145 (antibody, V domains shown)
VH: B24 VH with S100V, G101L, S102E, F103L, V104R, G105W, V106W, Y109P
VL: not shown
As for B25, the binding result is “binds”.

B26: CA156 (antibody, V domains shown)
VH: EVQLVESGGGLVKPGGSLRLSCAASGFTFSSYSMNWVRQAPGKGLEWVSSISSSSSYIYYADSVKGRFTISRDNAKNSLYLQMNSLRAEDTAVYYCARDFSGDFWSGYDYWGQGTLVTVSS
VL: not shown
Consider B26, for which the binding result is recorded as “binds”.

B27: CA155 (antibody, V domains shown)
VH: QVQLVESGGGLVKPGGSLRLSCAASGFTFSDYYMSWIRQAPGKGLEWVSYISSSSSYTNYADSVKGRFTISRDNAKNSLYLQMNSLRAEDTAVYYCARGGIYYYYYMDVWGKGTTVTVSS
VL: not shown
As to B27, the binding result was “binds”.

B28: CA157 (antibody, V domains shown)
VH: EVQLVESGGGLVQPGGSLRLSCAASGFTFSSYEMNWVRQAPGKGLEWVSYISSSGSTIYYADSVKGRFTISRDNAKNSLYLQMNSLRAEDTAVYYCARGYCSSTSCPFDYWGQGTLVTVSS
VL: not shown
In the case of B28, the binding result was “binds”.

B29: CA124 (antibody, V domains shown)
VH: QVQLVESGGGLVKPGGSLRLSCAASGFTFSDYYMSWIRQAPGKGLEWVSYISSSGSTIYYADSVKGRFTISRDNAKNSLYLQMNSLRAEDTAVYYCASGFSSWGADDYWGQGTLVTVSS
VL: HPDDPVSSSLSASVGDRVTITCRASQGISNYLAWFQQKPGKAPKSLIYAASSLQSGVPSKFSGSGSGTDFTLTISSLQPEDFATYYCQQYNSYPLTFGQGTKLEIK
Regarding B29, the binding result was “binds”.

As usually defined, the Kd is the concentration at which binding is half-saturated. The low end stands for a tighter complex, the high end for a looser complex.

Source of the values: publication PMC8960791 (Communications Biology, 2022).
